Data reported in paper PMC12070071, “The Drosophila pseudokinase Tribbles translocates to the fat body membrane in response to fasting to modulate insulin sensitivity” (Development (Cambridge, England), 2025).

T1: Drosophila Tribbles activation loop mutant Trbl^SLE/G, yeast two-hybrid bait (Drosophila, UniProt Q9V3Z1 1-484, SLE/G (replacement of E286 with glycine))
T1 construct: also called pDEST32-Trbl^SLE/G; source: yeast two-hybrid fusion (MaV203 yeast)
T1 sequence (looked up): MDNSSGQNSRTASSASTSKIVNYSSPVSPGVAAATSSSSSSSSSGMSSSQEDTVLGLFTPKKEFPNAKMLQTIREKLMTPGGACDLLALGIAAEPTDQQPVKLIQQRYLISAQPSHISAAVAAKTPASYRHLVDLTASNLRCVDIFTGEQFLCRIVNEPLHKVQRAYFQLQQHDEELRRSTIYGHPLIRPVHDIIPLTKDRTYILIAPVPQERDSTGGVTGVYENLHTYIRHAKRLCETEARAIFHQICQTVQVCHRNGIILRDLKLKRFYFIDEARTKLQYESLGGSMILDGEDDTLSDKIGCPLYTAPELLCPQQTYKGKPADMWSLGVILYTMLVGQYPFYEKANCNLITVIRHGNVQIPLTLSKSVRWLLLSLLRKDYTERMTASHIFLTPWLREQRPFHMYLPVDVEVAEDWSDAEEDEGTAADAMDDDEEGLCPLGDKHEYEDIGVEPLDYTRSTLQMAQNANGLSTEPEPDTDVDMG

B1: Drosophila Tribbles (Trbl), wild type, yeast two-hybrid fusion (natural protein, UniProt Q9V3Z1 1-484, looked up)
chain: MDNSSGQNSRTASSASTSKIVNYSSPVSPGVAAATSSSSSSSSSGMSSSQEDTVLGLFTPKKEFPNAKMLQTIREKLMTPGGACDLLALGIAAEPTDQQPVKLIQQRYLISAQPSHISAAVAAKTPASYRHLVDLTASNLRCVDIFTGEQFLCRIVNEPLHKVQRAYFQLQQHDEELRRSTIYGHPLIRPVHDIIPLTKDRTYILIAPVPQERDSTGGVTGVYENLHTYIRHAKRLCETEARAIFHQICQTVQVCHRNGIILRDLKLKRFYFIDEARTKLQYESLEGSMILDGEDDTLSDKIGCPLYTAPELLCPQQTYKGKPADMWSLGVILYTMLVGQYPFYEKANCNLITVIRHGNVQIPLTLSKSVRWLLLSLLRKDYTERMTASHIFLTPWLREQRPFHMYLPVDVEVAEDWSDAEEDEGTAADAMDDDEEGLCPLGDKHEYEDIGVEPLDYTRSTLQMAQNANGLSTEPEPDTDVDMG
notes: Tribbles (Trbl), Drosophila pseudokinase; WT Trbl ORF; One molecule for both two-hybrid copies: each copy carries only one of the two tags; also called WT Trbl; pDEST32-Trbl; source: yeast two-hybrid fusion (MaV203 yeast)

What was measured:
[1] = target: T1, Drosophila Tribbles activation loop …; assay: two-hybrid; MaV203 yeast; bait in pDEST32, prey in pDEST22; colony growth of co-transformants on media with increasing concentrations of 3-AT (His3 reporter); settings: partners not purified
[2] = target: B1; assay: as above; settings: partners not purified

Binder | highest 3AT concentration with growth [1] [mM 3AT] | highest 3AT concentration with growth [2] [mM 3AT]
B1 | 100 | –
Drosophila Akt, yeast two-hybrid prey (pDEST22-dAkt) (natural protein, UniProt Q8INB9 1-611, looked up, Akt kinase, Drosophila (dAkt); Akt open reading frame amplified from an Akt cDNA (Origene); source: yeast two-hybrid fusion (MaV203 yeast)) MNYLPFVLQRRSTVVASAPAPGSASRIPESPTTTGSNIINIIYSQSTHPNSSPTSGSAEKFSWQQSWPSRTSAAPTHDSGTMSINTTFDLSSPSVTSGHALTEQTQVVKEGWLMKRGEHIKNWRQRYFVLHSDGRLMGYRSKPADSASTPSDFLLNNFTVRGCQIMTVDRPKPFTFIIRGLQWTTVIERTFAVESELERQQWTEAIRNVSSRLIDVGEVAMTPSEQTDMTDVDMATIAEDELSEQFSVQGTTCNSSGVKKVTLENFEFLKVLGKGTFGKVILCREKATAKLYAIKILKKEVIIQKDEVAHTLTESRVLKSTNHPFLISLKYSFQTNDRLCFVMQYVNGGELFWHLSHERIFTEDRTRFYGAEIISALGYLHSQGIIYRDLKLENLLLDKDGHIKVADFGLCKEDITYGRTTKTFCGTPEYLAPEVLDDNDYGQAVDWWGTGVVMYEMICGRLPFYNRDHDVLFTLILVEEVKFPRNITDEAKNLLAGLLAKDPKKRLGGGKDDVKEIQAHPFFASINWTDLVLKKIPPPFKPQVTSDTDTRYFDKEFTGESVELTPPDPTGPLGSIAEEPLFPQFSYQGDMASTLGTSSHISTSTSLASMQ | 100 | 50
